Reference: patent US20250090677A1, “ANTI-CDH6 ANTIBODIES AND ANTIBODY-DRUG CONJUGATES THEREOF” (MULTITUDE THERAPEUTICS INC., priority 2021, published 2025)

B1: CL069066: mouse anti-CDH6 monoclonal antibody; VH SEQ ID NO: 95, VL SEQ ID NO: 96 (antibody, V domains shown)
VH: EVKLLESGGGLVQPGGSLKLSCAASGFDFSRYWMTWVRQAPGKGLEWIGEINPDSSTINYTPSLKDKFIISRDNAKNTLYLQMNKVTSEDTALYYCTRRPHYYGYFDSWGQGTTLTVSS
VL: DIVLTQSPASLAVSLGQRATISCRASESVEYYGTTLMQWYQQKPGQPPQLLIYAGSNVESGVPARFSGSGSGTEFSLNIHPVEEDDIGMYFCQQSRKVPWTFGGGTKLEIK
modifications: CL069066 VH; Ch069066 VH; CL069066 VL; Ch069066 VL
B2: DS-6000a (conjugate, chains of the INN, looked up)
VH: EVQLVQSGAEVKKPGASVKVSCKASGYTFTRNFMHWVRQAPGQGLEWMGWIYPGDGETEYAQKFQGRVTITADTSTSTAYMELSSLRSEDTAVYYCARGVYGGFAGGYFDFWGQGTLVTVSS
VL: DIQMTQSPSSLSASVGDRVTITCKASQNIYKNLAWYQQKPGKAPKLLIYDANTLQTGVPSRFSGSGSGSDFTLTISSLQPEDFATYFCQQYYSGWAFGQGTKVEIK
modifications: deruxtecan payload
B3: CL069439: mouse anti-CDH6 monoclonal antibody; VH SEQ ID NO: 103, VL SEQ ID NO: 104 (antibody, V domains shown)
VH: EVQLQQSGTELVRTGASVKISCKASGYSFTGYYIHWIKQSHGESLEWIGYISCFNGDTSYNQNFKDRATFNVDTSSSTAYMQFISLTSEDSAVYYCVRGRYGNFNYFDYWGQGTTLTVSS
VL: DIVLTQSPASLAVSLGQRATISCRASESVEFYGTSLMQWFQQKPGHPPQLLIYATSNVDSGVPARFSASGSGTDFSLNIHPVEEADIAMYFCQQSRRIPWTFGGGTKLEIK
modifications: CL069439 VH; Ch069439 VH; CL069439 VL; Ch069439 VL
B4: CL069707: mouse anti-CDH6 monoclonal antibody; VH SEQ ID NO: 18, VL SEQ ID NO: 23 (antibody, V domains shown)
VH: EVHLVESGGGLVQPKGSLKLSCVASGFTFTTYAMNWVRQAPGKGLEWVARIRIKNNNYATYYADSVTDRFTISRDDSQSMLYLQMNNLKTEDTAMYYCVRPDYGNYGLAYWGQGTLVTVSA
VL: EIVLTQSPTTMAASPGEKITITCSASSSISSHYLHWYQQKPGFSPKLLIYRSFYLASGVPLRFTGSGSGTSYSLTIGTMEAEDVATYYCQQDIVPLTFGAGTKLELK
modifications: CL069707 VH; Ch069707 VH; CL069707 VL; Ch069707 VL
B5: CL069463: mouse anti-CDH6 monoclonal antibody; VH SEQ ID NO: 41, VL SEQ ID NO: 46 (antibody, V domains shown)
VH: EVQLVESGGGLVQPKGSLKLSCAASGFTFNTYALTWVRQAPGKGLEWVGRIKSKNKDYETYYADSVKDRFTISRNDSQSLLYLQMNNLKTEDTAIYYCVRQNWNYFDYWGQGTTLTVSS
VL: DIQMTQSPASLAASVGETVTITCRASENIYYSLAWYQQRQGKSPQLLIYNANSLKDGVPSRFSGSGSGTQYSMKINSMQPEDTATYFCQQAYDVPPTFGGGTKLEIK
modifications: CL069463 VH; Ch069463 VH; CL069463 VL; Ch069463 VL

What was measured:
recombinant protein CDH6 = target: T1, recombinant protein CDH6 (Homo sapiens, UniProt P55285); experiment: ELISA binding activity of mouse monoclonal antibodies to CDH6 recombinant protein; settings: CDH6 coated 1 μg/mL, FIG. 23
T1 construct: CDH6 extracellular region (Ser 54-Ala 615) was used as an immunogen; purchased ACRO Biosystems CA6-H5229
T1 sequence (P55285 54-615): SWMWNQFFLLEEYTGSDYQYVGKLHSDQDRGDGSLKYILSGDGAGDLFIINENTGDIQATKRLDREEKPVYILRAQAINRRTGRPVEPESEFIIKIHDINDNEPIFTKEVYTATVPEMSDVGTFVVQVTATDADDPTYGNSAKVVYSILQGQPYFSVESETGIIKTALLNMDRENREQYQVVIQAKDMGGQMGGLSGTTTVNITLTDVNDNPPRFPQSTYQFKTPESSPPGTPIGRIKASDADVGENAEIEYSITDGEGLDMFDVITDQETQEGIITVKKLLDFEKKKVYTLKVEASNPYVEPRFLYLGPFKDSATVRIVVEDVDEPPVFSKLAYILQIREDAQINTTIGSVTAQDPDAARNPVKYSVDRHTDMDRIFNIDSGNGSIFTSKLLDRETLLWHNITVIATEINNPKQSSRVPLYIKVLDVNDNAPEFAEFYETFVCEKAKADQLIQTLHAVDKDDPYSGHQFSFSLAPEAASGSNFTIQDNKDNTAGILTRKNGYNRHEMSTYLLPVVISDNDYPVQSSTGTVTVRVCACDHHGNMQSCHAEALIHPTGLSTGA
Protocol: The recombinant protein CDH6 was coated on ELISA plates at 1 μg/mL overnight at 4° C.; after being washed with PBST, the plate was added with 10% fetal bovine serum, and the mixture was blocked at 37° C. for 1 h; the plate was added with 13 monoclonal antibodies of CDH6 with different dilutions (0.1 ng/mL to 100 ng/mL), and the mixture was reacted at 37° C. for 1 h; after being washed with PBST, the plate was added with horseradish peroxidase-labeled goat anti-human IgG secondary antibody (Goat anti Mouse (HRP), Thermo Fisher Scientific), and the mixture was reacted at 37° C. for 30 min; after the plate was repeatedly washed with PBST 5 times, the remaining droplets on the absorbent paper were patted as much as possible; each well of the plate was added with 100 μL of TMB (eBioscience) and placed in the dark at room temperature (20±5° C.) for 1.5 min; each well of the plate was added with 100 μL of 2 N H2SO4 stop buffer for stopping substrate reaction, OD values at 450 nm were read using a microplate reader, and the binding ability of the antibody to the target antigen CDH6 was analyzed. As shown in Table 1 and FIG. 23, the sensitivity of the anti-CDH6 antibody and CDH6 recombinant protein of the present application was not more than 12.5 ng/mL, wherein #13 (CL069463 antibody) was not more than 3.125 ng/mL, #23 (CL069707 antibody) was not more than 1.56 ng/mL, #4 (CL069066 antibody) was not more than 6.3 ng/mL, and #16 (CL069439 antibody) was not more than 1.0 ng/mL.

[1] = system: Renal Carcinoma Patient-Derived Xenograft (PDX); experiment: In vivo antitumor effect in renal carcinoma patient-derived xenograft (PDX) model; design: species or system mice; settings: 10 mg/kg intravenous, compared with IgG-LP1 or IgG-GGFG-DXd, FIG. 21A
Protocol: 6-8 weeks Nu/Nu mice were purchased from Zhejiang Charles River Co., Ltd. The tumors were sliced into 3 mm×3 mm×3 mm (about 50-90 mg) fragments and implanted subcutaneously into the right flank of mice. Then the animals were checked daily for tumor growth and body weight. The mice were randomized into 5 groups when mean tumor volume reaches ˜150 mm^3. The grouping day was regarded as day 0. Mice were then injected intravenous with 10 mg/kg of one of the following substances:10 mg/kg IgG-LP1, CL069707-H1L1-LP1, IgG-GGFG-DXd, Reference ADC and Reference Antibody-LP1. Tumor volumes were measured two times per week from day of treatment initiation by Caliper and calculated as follows: […].

[2] = Hydrophilicity of antibody-drug conjugate by HIC-HPLC (common procedure H); format: physicochemical; settings: shorter retention time = better hydrophilicity
Excerpt: The Hydrophilicity of the antibody-drug conjugate can be determined by hydrophobic interaction chromatography (HIC) in high-performance liquid chromatography (HPLC) analysis using the following method. • HPLC system: Agilent 1260 Infinity II HPLC system (Agilent Technologies, Inc.) • Detector: Ultraviolet absorption spectrometer (measurement wavelength: 280 nm) • HIC-Column: TOSOH TSKgel Butyl-NPR (4.6 mm I.D.×3.5 cm, 2.5 μm) • Mobile phase A: 1.5 mol/L (NH4)2SO4, 50 mmol/L KHPO4, pH7.0 • Mobile phase B: 50 mmol/L KHPO4, 25% (v/v) isopropanol, pH7.0 • Isocratic Operation: 25 min • Column temperature: room temperature • Gradient program (B %): 0%-25% (0 min-1 min), 25% (1 min-3 min), 25%-80% (3 min-13 min), 80% (13 min-17 min), 80%-0% (17 min-17.10 min), 0% (17.10 min-25 min) • Sample injection: 10 μL
It is confirmed that the shorter the retention time, the better of the sample's hydrophilicity

[3] = Aggregation of antibody-drug conjugate by SEC-HPLC (common procedure G); format: physicochemical
Excerpt: The aggregation in the antibody-drug conjugate can be determined by size exclusion chromatography (SEC) in high-performance liquid chromatography (HPLC) analysis using the following method. • HPLC system: Agilent 1260 Infinity II HPLC system (Agilent Technologies, Inc.) • Detector: Ultraviolet absorption spectrometer (measurement wavelength: 280 nm) • SEC-Column: TOSOH TSKgel G3000SWXL (7.8×300 mm, 5 μm) • Mobile phase: 200 mmol/L KHPO4, 150 mmol/L NaCl, 15% (v/v) isopropanol, pH7.0 • Flow rate: 0.75 mL/min • Isocratic Operation: 18 min • Column temperature: room temperature • Sample injection: 50 μg
The SEC chromatogram of quality control (QC, CL069707-H1L1) was shown in FIG. 5A, it is confirmed that the molecular weight of the main QC product is about 150 kDa and the monomer retention time is around 9.5-10.5 min. Meanwhile, the retention time of aggregation is earlier than that of monomer.

[4] = system: OVCAR-3 cells (human ovarian cancer cells); experiment: Flow cytometry recognition of cell-surface CDH6, OVCAR-3 positive cells; format: binding; settings: antibody diluted to 20 μg/mL, FCM, FIG. 24
Protocol: (§1) The binding of 13 CDH6 monoclonal antibodies to CDH6 on the cell surface was analyzed by Flow cytometry (FCM) using OVCAR-3 cells (human ovarian cancer cells) as positive cells and HepG2 cells (human hepatoma cells) as negative cells. Cells in the logarithmic growth phase were collected, adjusted to a cell density of 5×10^6 cells/mL, and pre-cooled on ice. 13 CDH6 monoclonal antibodies were diluted to 20 μg/mL in 2% FBS-containing pre-cooled saline. 100 μL of cells were taken and added with an equal volume of the diluted CDH6 monoclonal antibodies described above, and the mixture was reacted at 4° C. for 30 min in the dark. After the reaction was completed, the cells were washed twice with […] pre-cooled saline (6000 rpm, 45 s). The secondary antibody PE anti-mouse IgG (BD Pharmingen) was diluted at 1:500 with 2% FBS-containing pre-cooled saline, and each of the washed cells were resuspended with 100 μL of diluted secondary antibody and reacted for 30 min at 4° C. in the dark. After the reaction was completed, the cells were washed twice with 2% FBS-containing pre-cooled saline (6000 rpm, 45 s). The cells were resuspended in 400 μL of saline. The flow cytometer (BD Calibur) was used to analyze the binding ability of antibodies to cell surface antigens.

[5] = system: HepG2 cells (human hepatoma cells); experiment: Flow cytometry, HepG2 negative cells; format: binding; settings: antibody diluted to 20 μg/mL, FCM
Protocol: as §1

Molecule | sensitivity of the anti-CDH6 antibody and CDH6 recombinant protein (ELISA) (recombinant protein CDH6) | tumor volume / tumor growth inhibition [1] | retention time of the antibody-drug conjugate measured by common procedure H [2] [min] | aggregation of the antibody-drug conjugate measured by common procedure G [3] [%] | specific recognition of OVCAR-3 cells (positive cells) [4] | binding to negative cells HepG2 [5]
B1 | not more than 6.3 ng/mL | – | – | – | – | –
B2 | – | no tumor growth inhibition activity | 7.672 | 2.68 | – | –
B3 | not more than 1.0 ng/mL | – | – | – | – | –
B4 | not more than 1.56 ng/mL | – | – | – | capable of specifically recognizing | no binding was observed
B5 | not more than 3.125 ng/mL | – | – | – | capable of specifically recognizing | no binding was observed
